Measured values published in US20030109439A1.

Target: KGF receptor (mouse) (UniProt P21803)
Experiment: cell-based or functional assay

Sequence of UniProt P21803 (P21803 22-821): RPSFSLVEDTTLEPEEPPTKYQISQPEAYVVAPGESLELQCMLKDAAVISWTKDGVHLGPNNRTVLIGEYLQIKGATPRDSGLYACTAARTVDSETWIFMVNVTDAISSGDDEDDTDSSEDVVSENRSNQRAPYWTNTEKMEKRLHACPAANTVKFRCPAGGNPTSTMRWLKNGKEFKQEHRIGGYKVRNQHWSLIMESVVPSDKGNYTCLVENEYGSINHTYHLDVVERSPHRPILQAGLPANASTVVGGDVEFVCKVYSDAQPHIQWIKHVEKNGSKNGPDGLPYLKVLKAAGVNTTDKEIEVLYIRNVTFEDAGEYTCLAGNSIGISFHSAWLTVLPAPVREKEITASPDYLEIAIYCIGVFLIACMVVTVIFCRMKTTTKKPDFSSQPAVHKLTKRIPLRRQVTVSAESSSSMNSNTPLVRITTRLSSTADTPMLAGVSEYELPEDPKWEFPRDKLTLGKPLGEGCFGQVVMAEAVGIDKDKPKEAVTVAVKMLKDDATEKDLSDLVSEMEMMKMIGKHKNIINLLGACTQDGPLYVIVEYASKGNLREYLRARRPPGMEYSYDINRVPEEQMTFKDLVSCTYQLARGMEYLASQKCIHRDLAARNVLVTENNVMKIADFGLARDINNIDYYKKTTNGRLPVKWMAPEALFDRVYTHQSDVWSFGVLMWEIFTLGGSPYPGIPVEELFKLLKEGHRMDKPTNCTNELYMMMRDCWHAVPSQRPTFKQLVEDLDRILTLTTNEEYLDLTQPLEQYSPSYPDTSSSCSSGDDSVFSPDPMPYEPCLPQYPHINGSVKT

- potency as mitogen for Balb/Mk cells (cell proliferation), relative to KGF (fold less than KGF): 10
Substance: acidic FGF (ligand)
